According to the nanobody polyreactivity screen of Harvey et al. (2022):

Assay: yeast display, Sf9 membrane polyspecificity reagent, FACS + sequencing; frameworks hold sequencing errors
Procedure, shortened: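 Polyreactivity labels are assigned by the sorting gate from which each nanobody was recovered. The gates were low and high (top ~1%), set on anti-HA fluorescence for expression and streptavidin fluorescence for reagent binding. Before sorting, galactose-induced (36–48 hours) yeast display cells were stained for 1 hour at 4 °C with 10% biotinylated, detergent-solubilized Sf9 membrane reagent.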

Sequence	polyreactivity (PSR sort gate)
QVHLVESGGRLVQAGGSLRLSCAESGFTFGSNVKGAYRQAPGKEREFVDAITSSGRTKYADSVKGRFTISRDNAKNTVYLQMNSLKPEDTAVYYCAARPSQWNYDYRRVYYWVQGTQVTVSS	high polyreactivity
QVQLVESGGGLVQAGGSLRLSCAASGRTFGYNAMGRYRQAPGKERELVAAIRYSGGSTYYADSVKGRFTISRDNAKNTVYLQMNSLKPEDTAVYYCAKESRRYYRGYYYWGQGTQVTVSS	high polyreactivity
QDQLVESGGGLVQAGCSLRLSCAASGSTIPYNAMGWYRQAPGKERELVAAITWRAGRTYYADSVKGRFTISRDNAKITVYLQMNSLKAEDTAVYDCAKSYQRGVNHYEYWGQGTQVTVSS	high polyreactivity
QVQRVESGGGLVQAGGSLRLSCAASGRTFLQYAMGWYSQAPGKVREFVAAINWSGGSTYYAASVKRRFTISRDNAKNTVYLPMHSLKPEDTAVYYCAARRVYLGEYDYWGQGTQVTVSS	high polyreactivity
QVQLVESGGGLVQAGGSLRLSCAASGITFIYNAMGWYRQAPGKERELVATINDGGSTNYADSVKGRFTISRDNAKNTVYLQMNSLKPEDTAVYYCNADGGPYGAVGKSDYWGQGTQVTVSS	low polyreactivity
QVQLVESGGGLVQAGGSLRLSCPASGRIIAWYAMGWYRQAPGKERELVAVITSSGGSTYYADSVKGRFTISRDNAKNTVYFMMNRLKPEDTAVYYCARKVVSPAWSHDFYYWGLGTQVTVSS	low polyreactivity
QVQLVESGRGLVQAGGSLRLSCAASGSIFGAYVMGWYRQAPGKERELVAAITRRGGSTYYADSVKGRFTISRDNAKNTVYLQMNSLKPEDTAVYYCAARRGAGDGYWGQGTQVNVSS	high polyreactivity
QVQLVESGGGLVQAGGSLRLSCAASGFIFRPYVMGWYRQAPGKERELVAAISRSGSSTYYADSVKGRFTISRDNAKNTVYLQMNSLQPEDTAVYYCARRTSQEFDYWGQGTQVTVSS	high polyreactivity
QVQLVESGGGLDQAGGSLRLSCAASGRIFLVYVMGWYRQAPGKERELVAAISASDGSTYYADSVKGRFTISRDNANNTVYLQMNSLKPEDTAVDYCAEWGYSLDSNSYRELNYWGQGTQVNVSS	low polyreactivity
QVQLVESGGGLVQAGGSLRLSCAASGRIFPYYTMGWYRQAPGKERELVAAISRRGSSTYYADSVKGRFTISRDNAQNTVYLQMNSLKPEDTAVYNCAADRGGYTRTGEYDYWGQGTQVTVSS	high polyreactivity
QVQLVESGGGLVQAGGSLRLSCAASGSIFYWYAMGWYRQAPGKERELVAGITGRGGSTYYADSVKGRFTISRDNAKNTVYLQMNSLKPEDTAVYYCAARYTRWRYNYKDYDYWGQGTQVTVSS	high polyreactivity
QVQLVESGGGLVQAGGSLRLSCAASGLILYYYAMGWYRQAPGKEREFVAAISGRGGSTYYADSVKGRFTISRDNAKNTVYLQMNSLKPEDTAVYYCAARVWYKYDHWGQGTQVTVSS	high polyreactivity
QVQLVESGGGLVQAGGSLSLSCAASGFIFNHYAMRWYRQAPGTETEFVAAISLSGGSTYYAVSVKGRFTISRDNAKKTVYLQRNSLKPEDTAVYYCAASYNGLWHGDYDYWGHGTQVTVSS	low polyreactivity
QVQLQESVGGLVQAGGSLRLSCAASGNIFPTDRMGWYRQAPGKELEFVATISDGGSTNYADSVKGRFTISRDNAKNTVYLQMNSLKPEDTAVYYCAVWSLGRWRHYYWGQGTQVTVSS	low polyreactivity
QVQLVESGGGLVQAGGSLRLSCAASGSTFYAYVMGWYRQAPGKERELVAGISWSGGSTYYADSVKGRFTISRDNAKNTVYLQMNSLKPEDTAVYFFAADYYNTYGYDYWGQGTQVTVSS	low polyreactivity
QVQLVESGGGLVQAGGSLRLSCAASGRIFVRYAMGWYRQAPGKERELVAAISKSGGSTYYADSVKGRFTISRDNAKNTVYLQMNSLKPEDTAVYYCNALVRRRPGYIRYDYWGQGTQVTVSS	low polyreactivity
QLKHVESGGGLVQAGGSLRLSCAASVGTFGLNAMGRYRQAPGKERELVADIDGRGGSTYYADSVKGRFTISRDNAKNTVNLQMNTLKPEDTAVYYCAARAPFLSVPSELDYCGQGTQVTVSS	low polyreactivity
QVQLVESGRGLVQAGGSLRLSCAASARTFPIYAMGCYRQAPWKEREFVAAITYSGGSTYYADSVKGRFTISRDNAKNTVYLQMNSLKPEDTAVYYCAVDGTKPYWHQRYDYSGQGTQVTVSS	low polyreactivity
QVQLVESGGGLVQGGGTLRLSCAASGSILSRNTMGWYRQAPGKEREFVADISKGDSTYYADSVKGRFTISRDNAKNTGYLQMNILKPVDTAVYYCAVDSWRRAMWYYGRYGYWGQGTEVTVSS	low polyreactivity
QVQLVESGGGLVQAGGSLRLSCDASGLIFITYAMRWYRQAPGKERELVATITLRGGSTYYADSVKGRFTISRDNAKNTVYLQMNSLKPEDTAVYYCAAEVGYWGRSRGYPSDDYDYCGQGTQVTVSS	low polyreactivity
QVQLVESGGGLVQAGGSLRLSCAASGFTFYSYAMGWYRQAPGKERELVAAISRSGGSTRYADSVKGRFTISRENAKNTVYLQMNSLKPEDTAVYYCNAGKDRAYDYWGQGTQVTVSS	high polyreactivity

Sequence	polyreactivity (PSR sort gate)
QVQLVESGGGLVQAGGSLRLSCAASGRIFPSYAMGWYRQAPGKERELVAAITSSDSTYYADSVKGRFTISRDNAKNTVYLQMNSLKPEDTAVYYCAAAYSYSGWWWFGYWGQGTQVTVSS	high polyreactivity
QVQLVESGGGLVQAGGSLRLSCAASGSIFRRYTMGWYRQAPRKERELVAAISRVGNTNYADSVKGRFTISRDNAKNTVYLQLNSLKPEDTAVYYCAARGIGYRYTPGLNYWGQGTQVTVSS	high polyreactivity
QVQLVESGGGLVQAGGSLRLSCASSGSIFQYNAMGWYRQAPGKERELVAAINGGGSTYYADSVRGRFTISRDNAKNTVYLQMNSLKPEDTAVYYCAARHGESHYDYWGQGTQVTVSS	low polyreactivity
QVQLVESGGGLVQAGGSLRLSCSASGSTFFPYAMGWYRQAPGKERELVAAITSGGNTNYADSVKGRFTISRDNAKNTVYLQMNSLKPEDTAVYYCAADYLWHYRKYDYWGQGTQVTVSS	low polyreactivity
QVQLVESGGGLVQAGGSLRLSCAASGIIFHVYAMGWYRQAPGKERELVAAISDDGSTNYADSVKGRFTISRDNAKNTVYLQMNSLKPEDTAVYYCAKESWGRLYYRYDYWGQGTQVTVSA	low polyreactivity
QVQLVESGGGLVQAGGSLRLSCAASGRTFVPYAMGRYRQAPGKERELVAAISARGSSTYYADSVKGRFTISRDNAKNTVYLQMNSLKPEDTAVYYCNAVGARVASATGMEYWGQGTQVTVSS	high polyreactivity
QVQLVESGGGLVQAGGSLRLSCAASGIIFFSNTMVGYRQAPGKDREFVAAITWSTGNTYYADSVKGRFTISRDNAKNTVYLQMNSLKTEDTAVYYCYAEYLVITLYGGVEFDYWGQGTQVTVSS	low polyreactivity
QVQLVESGGGLVQAGGSLRLSCAASGRTFKFYAMGWYRQAPGKERELVAAISSSGGRTYYADSVKGRFTISRDNAKNTVYLQMNSLTPEDTAVYYCAAVPGSKFVQKDDYWGQGTQVTVSS	low polyreactivity
QVQLVESGGGLVQAGGSLRLSCAASGRTSVYNAMGWYRPAPGKERELVAAIRGGGGNTYYADSVKGRFTISRDNAKNTVYLQMNSLKPADTAVYYCAKGSVVYLLRGVKGHSMDYWGQGTQVTVSS	low polyreactivity
QVQLVESGGGLVQAGGSLRLSCAGSGSTFKKYPMGWYREATGKEREFVAAISRGGRTYYADSVKGRFTSSRDNAKTTVYLQMNSLNPEDTAVYYCAADTFAYQEVYYWGQGTQVTVSS	high polyreactivity
QVQLVESGGGLVQAGGSLRLSWAASGGPFSSYDMGWYRQAPGTERELVADITNGGSTNFADSVKGRCTISRDNAKNTVYLQMNSLKPEDTAVYYCATDSYPGLNPDFDYWGHGTQVTVSS	low polyreactivity
QVQLVESGGGLVQAGGSLRLSCAASGRIFPWYTMGWYRQAPGKERELVAAITSGGNTDYADSVKGRFTISRDNAKNNVYLQMNSLKPEDTAVYYCAAGGYPGTTYYGYDYWGQGTQVTVSS	low polyreactivity
QVQLVESWGGLVQAGGSLRLSCAASGSIFDVNAMGWYRQAPGKERELVAAISDSGGSTYYADSVKGRFTISRDNAKNTVYLQMNSLKPEDTAVYYCNADWSWYNYYDFDYWGQGTQVTVSS	low polyreactivity
QVQLVESGGGLVQAGGSLRLSCAASGRTYSYYAMGWYRQAPGKERQLVAAITTRTGSTYYADSVKGRFTISRDNAKNTVYLQMNSLKPEDTAVYYCAAEPRYLRSGKGFDYWGQGTQVTVSS	high polyreactivity
QVQLVESRGGSVQAGGSLRLSCAASGNIFYYAMGWYRQAPGKERELVAAISASGGSSYYADSVKGRFTISRDNAKNTVYLQMNSLKPEDTAVYYCKAVFYRGPGAQGDPRRRSDYWGQGTQVTVSS	high polyreactivity
QVQLQESGGGLVQAGGTLRLSCAASGSFSADEDMGWYRQAQGKESEFVAGISVGGNTNYADSVKGRFTISRENAKNTVYLQINSLKPEDTAVYYCAVLQDVYDALDYWAQGTQVTVSS	high polyreactivity
QVQLVESGGGLVQAGGSLRLSCAASGFIFTGNVMGWYRQAPGKERELVAAITSSGGSTYYADSVKGRFTISRDNAKNTVYLQMNSLKPEDTAVYYCATRYGGRYYWGQGTQVTVSS	high polyreactivity
QVQLVESGGGLVQAGGSLRLSCAASGSIFFVYAMGWYTQAPGKERELVAGIRWSGGRTSYADSVKGRFTISRDNAKNTVYLQMNSLNQEDTAVYYCAAGCGVLPQQHYYYRYDYWGQGTQVTVSS	high polyreactivity
QVQLVESGGGLVRAGGSLRLSCAASGRNKDNVMGWYRQAPGKERELVAAITRSAGRTYYADSVKGRFTISRDNAKNTVYLQMNSLIPEDTAVYYFATADAHYSAAGEDYWGQGTQVTVSS	low polyreactivity
QVQLVESGGGLVQAGGSLRLTCAASGFIFVTYAMGWYRQPPGKERELVAAITNSGGTTYYADSVKGRFTISRDNAKNTVYLQMNSLKPEDTAVYYCNIPYGAETAHREFDYWGQGTQVTVSS	low polyreactivity
